Measured values: the supplement of paper PMC10065799, “High-throughput profiling of sequence recognition by tyrosine kinases and SH2 domains using bacterial peptide display” (eLife, 2023)

Key:
Fes = Fes (UniProt P07332); assay: phosphorylation enrichment, bacterial display (enrichment ratio); higher = better substrate or ligand; peptides without Tyr show the background
FGFR1 = FGFR1 (UniProt P11362); assay: as above
c-Src = assay: as above
Fer (mouse) = assay: as above
Jak2 = Jak2 (UniProt O60674); assay: as above
Fyn = Fyn (UniProt P06241); assay: as above
Sequence of Fyn (P06241 whole entry, looked up): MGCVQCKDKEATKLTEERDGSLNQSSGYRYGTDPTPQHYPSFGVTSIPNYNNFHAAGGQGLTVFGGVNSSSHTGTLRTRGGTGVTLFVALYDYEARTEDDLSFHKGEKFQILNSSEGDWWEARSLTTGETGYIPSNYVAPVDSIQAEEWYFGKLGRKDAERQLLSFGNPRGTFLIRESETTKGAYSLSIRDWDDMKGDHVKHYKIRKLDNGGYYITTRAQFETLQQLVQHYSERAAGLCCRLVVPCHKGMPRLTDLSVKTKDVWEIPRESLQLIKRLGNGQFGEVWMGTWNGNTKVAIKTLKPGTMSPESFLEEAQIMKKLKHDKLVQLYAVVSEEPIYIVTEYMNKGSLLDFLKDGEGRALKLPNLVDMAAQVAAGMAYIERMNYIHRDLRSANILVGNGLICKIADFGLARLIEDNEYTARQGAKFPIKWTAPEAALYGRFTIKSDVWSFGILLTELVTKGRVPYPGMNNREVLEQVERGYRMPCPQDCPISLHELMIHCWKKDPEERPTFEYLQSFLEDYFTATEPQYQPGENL

EPHB1 = EPHB1 (UniProt P54762); assay: as above
Sequence of EPHB1 (P54762 whole entry, looked up): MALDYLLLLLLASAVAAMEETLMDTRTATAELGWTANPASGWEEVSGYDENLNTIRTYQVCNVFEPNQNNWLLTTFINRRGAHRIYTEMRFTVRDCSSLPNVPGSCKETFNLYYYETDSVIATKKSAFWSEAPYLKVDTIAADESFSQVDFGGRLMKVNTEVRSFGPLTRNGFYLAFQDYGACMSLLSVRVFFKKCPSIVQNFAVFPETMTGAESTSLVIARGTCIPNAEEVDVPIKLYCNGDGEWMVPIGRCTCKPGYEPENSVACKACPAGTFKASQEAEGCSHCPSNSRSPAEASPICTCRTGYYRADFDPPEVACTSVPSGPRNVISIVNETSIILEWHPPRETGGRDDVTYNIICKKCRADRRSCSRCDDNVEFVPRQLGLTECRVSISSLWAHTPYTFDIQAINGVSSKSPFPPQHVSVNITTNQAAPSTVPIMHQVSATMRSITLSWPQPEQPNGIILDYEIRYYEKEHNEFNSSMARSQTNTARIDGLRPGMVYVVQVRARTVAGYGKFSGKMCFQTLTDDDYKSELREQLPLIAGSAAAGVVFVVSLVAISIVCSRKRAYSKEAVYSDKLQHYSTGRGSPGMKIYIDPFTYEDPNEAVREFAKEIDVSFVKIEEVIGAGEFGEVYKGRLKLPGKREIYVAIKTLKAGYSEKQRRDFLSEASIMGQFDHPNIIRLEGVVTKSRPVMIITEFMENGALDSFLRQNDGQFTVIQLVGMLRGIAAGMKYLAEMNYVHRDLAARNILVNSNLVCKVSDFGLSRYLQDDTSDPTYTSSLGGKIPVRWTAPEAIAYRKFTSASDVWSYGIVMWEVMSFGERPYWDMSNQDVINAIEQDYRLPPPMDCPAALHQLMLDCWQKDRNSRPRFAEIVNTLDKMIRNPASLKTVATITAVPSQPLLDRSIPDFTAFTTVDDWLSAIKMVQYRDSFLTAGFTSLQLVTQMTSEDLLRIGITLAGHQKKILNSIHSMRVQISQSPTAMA

FGFR3 = FGFR3 (UniProt P22607); assay: as above
Hck = Hck (UniProt P08631); assay: as above
Sequence of Hck (P08631 whole entry, looked up): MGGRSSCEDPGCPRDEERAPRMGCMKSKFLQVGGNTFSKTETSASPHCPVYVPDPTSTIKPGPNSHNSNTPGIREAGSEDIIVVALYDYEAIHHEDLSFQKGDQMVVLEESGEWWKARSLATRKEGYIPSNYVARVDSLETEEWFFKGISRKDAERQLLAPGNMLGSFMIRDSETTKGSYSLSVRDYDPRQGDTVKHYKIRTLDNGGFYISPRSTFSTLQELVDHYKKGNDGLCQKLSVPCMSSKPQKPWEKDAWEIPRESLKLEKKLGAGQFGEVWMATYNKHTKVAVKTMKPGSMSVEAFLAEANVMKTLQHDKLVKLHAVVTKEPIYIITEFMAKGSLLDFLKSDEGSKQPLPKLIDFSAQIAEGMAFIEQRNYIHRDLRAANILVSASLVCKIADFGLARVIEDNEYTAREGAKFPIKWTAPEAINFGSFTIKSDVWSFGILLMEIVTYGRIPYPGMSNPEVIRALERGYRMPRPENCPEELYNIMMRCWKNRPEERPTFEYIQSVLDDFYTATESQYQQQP

AncSZ = assay: as above
c-Abl (mouse) = assay: as above
EPHB2 = EPHB2 (UniProt P29323); assay: as above
Sequence of EPHB2 (P29323 whole entry, looked up): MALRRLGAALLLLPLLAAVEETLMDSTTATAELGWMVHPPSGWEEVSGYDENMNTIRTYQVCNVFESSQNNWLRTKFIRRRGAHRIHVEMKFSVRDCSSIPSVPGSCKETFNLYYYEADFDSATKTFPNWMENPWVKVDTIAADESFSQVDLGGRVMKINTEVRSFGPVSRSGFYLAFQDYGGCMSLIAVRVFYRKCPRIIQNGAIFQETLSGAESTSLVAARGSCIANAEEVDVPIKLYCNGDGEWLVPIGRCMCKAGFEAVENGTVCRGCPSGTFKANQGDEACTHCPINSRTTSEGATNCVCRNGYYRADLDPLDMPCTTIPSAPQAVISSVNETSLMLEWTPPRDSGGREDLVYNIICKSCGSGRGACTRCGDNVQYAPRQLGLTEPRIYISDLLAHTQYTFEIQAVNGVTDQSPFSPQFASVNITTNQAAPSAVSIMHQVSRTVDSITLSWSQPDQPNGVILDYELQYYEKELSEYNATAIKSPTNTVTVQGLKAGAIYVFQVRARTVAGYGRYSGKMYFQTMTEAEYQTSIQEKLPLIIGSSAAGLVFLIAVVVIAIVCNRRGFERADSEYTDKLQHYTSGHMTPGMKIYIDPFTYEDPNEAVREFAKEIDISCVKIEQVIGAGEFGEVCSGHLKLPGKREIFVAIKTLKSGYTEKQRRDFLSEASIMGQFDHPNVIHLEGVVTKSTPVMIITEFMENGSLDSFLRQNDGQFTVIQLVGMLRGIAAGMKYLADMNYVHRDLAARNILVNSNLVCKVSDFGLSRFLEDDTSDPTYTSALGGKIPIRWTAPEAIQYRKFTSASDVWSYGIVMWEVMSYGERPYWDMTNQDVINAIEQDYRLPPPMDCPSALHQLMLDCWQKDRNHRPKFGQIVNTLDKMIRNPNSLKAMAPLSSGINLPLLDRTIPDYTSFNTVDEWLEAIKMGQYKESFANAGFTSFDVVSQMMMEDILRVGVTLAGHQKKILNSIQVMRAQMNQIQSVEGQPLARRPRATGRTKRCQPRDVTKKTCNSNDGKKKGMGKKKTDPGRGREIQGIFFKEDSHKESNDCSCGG

MERTK = MERTK (UniProt Q12866); assay: as above
SHP2-C SH2 = assay: SH2 binding enrichment of the phosphorylated peptide, bacterial display (enrichment ratio); higher = better substrate or ligand; peptides without Tyr show the background
c-Src SH2 = assay: as above
Grb2 SH2 = Grb2 SH2 (UniProt P62993); assay: as above
Sequence of Grb2 SH2 (P62993 whole entry, looked up, the tested form may be a part): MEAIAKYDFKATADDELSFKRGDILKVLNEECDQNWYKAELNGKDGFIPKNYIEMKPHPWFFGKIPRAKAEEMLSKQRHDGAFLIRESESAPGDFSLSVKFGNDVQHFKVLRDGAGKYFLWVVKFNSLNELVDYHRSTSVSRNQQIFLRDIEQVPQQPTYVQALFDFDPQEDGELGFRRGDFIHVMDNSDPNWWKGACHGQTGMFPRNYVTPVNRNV
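Wherever SH2 binding enrichment of the phosphorylated peptide, bacterial display is given: peptide library displayed on the E. coli surface as eCPX fusions, selected cells deep-sequenced, score is each peptide's frequency after selection divided by its frequency in the input.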
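Wherever phosphorylation enrichment, bacterial display is given: 11-residue human phosphosite peptides and single-mutation variants displayed on the E. coli surface, counted by deep sequencing, each peptide's frequency after selection divided by its frequency in the unselected input library; frequency after pTyr selection over input frequency; kinase dosed for 20-30% of maximal phosphorylation in three min.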

Sequence of FGFR1 (P11362 whole entry, looked up): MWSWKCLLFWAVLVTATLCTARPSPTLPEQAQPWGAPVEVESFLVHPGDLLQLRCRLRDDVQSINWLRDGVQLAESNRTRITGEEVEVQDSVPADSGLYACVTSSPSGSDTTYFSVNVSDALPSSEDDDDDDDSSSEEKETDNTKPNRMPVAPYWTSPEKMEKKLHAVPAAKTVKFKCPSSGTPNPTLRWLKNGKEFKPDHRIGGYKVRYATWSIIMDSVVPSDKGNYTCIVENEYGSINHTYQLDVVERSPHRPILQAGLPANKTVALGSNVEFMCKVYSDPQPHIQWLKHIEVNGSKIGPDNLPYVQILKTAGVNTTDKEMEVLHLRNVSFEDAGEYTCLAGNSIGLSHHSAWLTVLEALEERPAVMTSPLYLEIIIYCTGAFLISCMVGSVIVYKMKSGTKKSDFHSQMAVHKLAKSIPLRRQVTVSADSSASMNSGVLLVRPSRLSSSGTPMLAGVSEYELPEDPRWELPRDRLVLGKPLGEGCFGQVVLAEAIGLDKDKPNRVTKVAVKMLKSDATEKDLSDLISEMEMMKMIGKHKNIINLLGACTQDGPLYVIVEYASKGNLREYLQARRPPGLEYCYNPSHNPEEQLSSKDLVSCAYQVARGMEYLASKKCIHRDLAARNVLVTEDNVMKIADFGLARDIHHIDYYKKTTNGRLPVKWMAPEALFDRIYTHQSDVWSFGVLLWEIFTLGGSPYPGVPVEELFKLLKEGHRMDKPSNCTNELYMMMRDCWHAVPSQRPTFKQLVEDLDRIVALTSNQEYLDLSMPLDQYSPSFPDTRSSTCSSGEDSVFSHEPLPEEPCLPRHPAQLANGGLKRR
Sequence of Fes (P07332 whole entry, looked up): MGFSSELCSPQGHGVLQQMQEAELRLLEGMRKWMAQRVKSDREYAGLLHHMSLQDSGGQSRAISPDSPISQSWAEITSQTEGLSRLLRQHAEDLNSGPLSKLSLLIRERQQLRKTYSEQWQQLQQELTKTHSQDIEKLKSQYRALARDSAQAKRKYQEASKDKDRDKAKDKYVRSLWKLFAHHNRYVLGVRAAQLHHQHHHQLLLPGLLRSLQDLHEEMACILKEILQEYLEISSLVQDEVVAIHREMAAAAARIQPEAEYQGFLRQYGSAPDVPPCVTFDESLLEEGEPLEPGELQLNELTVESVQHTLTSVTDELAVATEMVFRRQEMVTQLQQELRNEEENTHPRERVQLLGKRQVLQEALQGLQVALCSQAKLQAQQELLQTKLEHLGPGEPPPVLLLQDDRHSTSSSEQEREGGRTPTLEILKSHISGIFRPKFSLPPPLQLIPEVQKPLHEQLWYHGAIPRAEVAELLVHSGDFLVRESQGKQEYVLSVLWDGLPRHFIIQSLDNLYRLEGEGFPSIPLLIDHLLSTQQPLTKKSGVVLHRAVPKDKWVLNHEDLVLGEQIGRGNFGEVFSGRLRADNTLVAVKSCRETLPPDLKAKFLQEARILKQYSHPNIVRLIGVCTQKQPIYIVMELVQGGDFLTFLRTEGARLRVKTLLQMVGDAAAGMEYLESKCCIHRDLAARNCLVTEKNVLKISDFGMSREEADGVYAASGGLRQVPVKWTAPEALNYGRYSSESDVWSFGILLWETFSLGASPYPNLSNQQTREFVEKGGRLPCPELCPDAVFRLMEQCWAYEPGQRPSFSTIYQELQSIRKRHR

Sequence	phosphorylation enrichment (Fes)	phosphorylation enrichment (FGFR1)	phosphorylation enrichment (c-Src)	phosphorylation enrichment (Fer (mouse))	phosphorylation enrichment (Jak2)	phosphorylation enrichment (Fyn)	phosphorylation enrichment (EPHB1)	phosphorylation enrichment (FGFR3)	phosphorylation enrichment (Hck)	phosphorylation enrichment (AncSZ)	phosphorylation enrichment (c-Abl (mouse))	phosphorylation enrichment (EPHB2)	phosphorylation enrichment (MERTK)	SH2 binding enrichment (SHP2-C SH2)	SH2 binding enrichment (c-Src SH2)	SH2 binding enrichment (Grb2 SH2)
ITNLLYHVVSW [GBA_Y412_G416S]	1.35	9.38	3.8	5.89	3.17	3.23	8.05	7.83	4.84	1.46	3.22	5.99	7.13	1.15	0.944	1.25
HGTKVYIDPFT [EPHB4_Y590]	0.705	0.711	0.49	0.426	0.815	0.601	0.788	0.688	0.628	0.602	0.725	0.66	1.03	1.62	0.788	1.21
ASQEEYSAMRD [KRAS_Y64_G60S]	0.946	0.714	0.508	0.435	0.976	0.487	0.577	0.68	0.531	1.08	0.681	0.58	0.496	0.502	0.77	0.812
MDNQEYKDAYT [BRDT_Y331_K336T]	1.33	0.667	0.546	0.638	1.11	0.589	0.598	0.783	0.673	1.33	0.792	0.796	0.586	0.655	0.574	0.702
GGQVFHNSEYG [FLT4_Y1333_Y1333H]	0.712	0.386	0.425	0.349	0.67	0.362	0.438	0.535	0.377	0.581	0.857	0.431	0.314	0.655	0.474	0.665
EFGFRYELVQF [UGGT2_Y1289_Y1285F_YF]	1.21	0.477	0.315	0.887	1.11	0.433	0.592	0.853	0.509	1.26	0.64	0.585	0.375	0.859	1.4	0.849
GQLIFYAPPEW [CNTN6_Y315]	1.18	0.513	0.822	2.04	1.5	0.576	0.938	0.731	0.829	1.39	2.95	3.08	3.46	0.963	0.781	1.09
HNQDGYSYLSR [LDLR_Y845_P848L]	0.681	0.879	0.554	0.522	0.679	0.624	0.527	0.658	0.793	0.478	0.551	0.889	0.719	2.08	11.7	0.698
RFLRGYRQDAF [HLA-A_Y137_YF]	1.01	0.569	0.413	0.658	0.498	0.489	0.742	0.677	0.802	0.644	0.708	0.47	0.799	0.888	0.559	1
MRALIYNSSTV [PLEKHA7_Y243_A248V]	0.824	0.447	0.77	0.51	0.726	0.714	0.447	0.57	0.754	0.669	0.872	0.657	0.405	0.605	0.463	0.674
LLSVAYKNVVG [YWHAG_Y49]	0.935	0.589	0.418	0.551	0.649	0.585	0.645	0.709	0.665	1.02	1.05	0.64	0.454	0.518	0.434	0.932
FDSPFYRDSLP [TSC1_Y508]	0.68	0.446	0.451	0.497	0.594	0.454	0.314	0.484	0.47	0.703	0.47	0.479	0.409	0.652	0.518	0.796
PLGPLYASSNP [INSR_Y992]	1.65	0.683	1.35	1.82	0.941	1.27	1.14	0.742	4.49	0.96	1.47	1.01	1.49	0.709	0.75	0.641
HLELNYKEDEY [MME_Y502_Y497H]	0.994	0.487	0.418	0.344	1.06	0.514	0.562	0.611	0.382	1.32	0.62	0.535	0.396	0.535	0.483	0.692
GHNDVYISEHV [GRIN2A_Y1423]	0.618	0.393	0.395	0.317	0.407	0.416	0.331	0.478	0.438	0.552	0.33	0.447	0.332	0.535	0.456	1.1
GTGTAYLCGVK [ALPL_Y117_A114G]	0.754	0.446	0.348	0.511	0.675	0.435	0.551	0.489	0.395	0.694	0.685	0.412	0.379	0.679	0.543	0.902
SVTCTGSPALN [TP53_Y126_Y126G]	0.972	0.422	0.387	0.423	0.741	0.422	0.539	0.511	0.459	0.792	0.612	0.487	0.385	0.625	0.388	0.796

Sequence	phosphorylation enrichment (Fes)	phosphorylation enrichment (FGFR1)	phosphorylation enrichment (c-Src)	phosphorylation enrichment (Fer (mouse))	phosphorylation enrichment (Jak2)	phosphorylation enrichment (Fyn)	phosphorylation enrichment (EPHB1)	phosphorylation enrichment (FGFR3)	phosphorylation enrichment (Hck)	phosphorylation enrichment (AncSZ)	phosphorylation enrichment (c-Abl (mouse))	phosphorylation enrichment (EPHB2)	phosphorylation enrichment (MERTK)	SH2 binding enrichment (SHP2-C SH2)	SH2 binding enrichment (c-Src SH2)	SH2 binding enrichment (Grb2 SH2)
LKSEMYQKLLK [RGS13_Y146]	1.18	0.749	0.425	0.456	0.92	0.56	0.709	0.845	0.78	1.34	0.733	0.925	0.348	0.523	0.544	0.832
RIVEIYSRRLQ [GCH1_Y175]	0.976	0.777	0.803	0.556	0.794	0.921	0.645	0.96	1.02	0.942	0.747	0.92	0.678	0.879	0.617	0.789
VDDEIYFFRKP [PBRM1_Y1289_YF]	1.4	1.32	5.57	0.652	1.25	6.18	0.693	1.32	5.24	2.12	1.35	0.635	0.796	0.661	0.466	0.75
LEDEVCAQKMK [TPM2_Y261_Y261C]	2.03	0.79	0.573	1.01	1.44	1.01	1.07	1.16	0.832	1.6	1.2	0.963	0.848	1.38	0.967	1.02
KFLENYFDLKK [MMP3_Y41_YF]	1.27	2.51	0.499	0.467	1.26	0.448	1.94	1.75	0.543	1.06	0.816	0.751	0.446	0.709	0.604	0.886
VKALKYKSMKI [ITGA11_Y1098_L1093V]	0.507	0.369	0.306	0.327	0.434	0.329	0.32	0.405	0.31	0.396	0.472	0.331	0.276	1.23	1.14	1.29
FQCLRYIKQLG [SAMHD1_Y146_R143C]	1.25	0.382	0.44	0.428	1.11	0.427	0.468	0.596	0.452	0.954	0.809	0.434	0.423	0.658	0.528	0.662
SHLSAFPALEG [CD5_Y465_Y465F]	0.612	0.354	0.328	0.312	0.5	0.352	0.431	0.52	0.402	0.553	0.407	0.367	0.347	0.751	0.529	0.734
DRLASYLDKMR [KRT17_Y98_V102M]	0.912	0.483	0.459	0.436	0.667	0.751	0.376	0.513	0.473	0.697	0.606	0.467	0.45	0.529	0.488	1.03
FKNGDYNEVMK [LCT_Y1638]	0.903	0.579	0.388	0.41	0.595	0.389	0.578	0.548	0.541	0.882	0.578	0.415	0.388	0.642	1.77	0.744
PHMQTYEVDPN [SDHB_Y61_L65P]	1.49	0.511	1.35	0.758	1.04	0.586	0.782	0.761	0.791	1.19	0.932	0.628	0.522	0.717	0.555	0.974
AHAGKYGAEAL [HBA1_Y25_E24K]	0.796	0.4	0.387	0.342	0.544	0.423	0.453	0.42	0.368	0.677	0.451	0.338	0.347	0.608	0.452	0.818
KRRGPYEMSPS [PLPP7_Y172_T174M]	0.452	0.338	0.45	0.345	0.459	0.387	0.323	0.377	0.445	0.58	0.508	0.371	0.402	0.344	0.456	0.532
GCRSKYVRLWG [KCNQ1_Y184_G186R]	0.696	0.462	0.495	0.472	0.636	0.425	0.383	0.486	0.461	0.628	0.492	0.409	0.444	1.6	1.54	1.38
LAETSYVIVLE [MAGEA1_Y276_K278I]	2.35	0.688	1	0.734	2.19	0.791	1.06	0.997	0.727	1.8	1.54	0.99	0.616	0.983	0.479	0.641
NCFKYYMSDDI [ATRX_Y204]	1.51	0.959	0.811	0.496	1.32	0.491	0.748	0.931	0.548	1.33	1.17	0.625	0.562	0.799	1.52	0.97
